Source: the RNAGym collection of RNA variant scans (doi:10.7554/elife.80360)

B1: HDV Ribozyme (parent)
chain: GGCCGGCAUGGUCCCAGCCUCCUCGCUGGCGCCGGCUGGGCAACAUUCCGAGGGGACCGUCCCCUCGGUAAUGGCGAAUGGGACCCA

Variants of: B1
Test: self-cleavage, relative activity (ratio to wild type); higher = more cleavage; co-transcriptional

Row | Variant | self-cleavage
1 | C32G C64A | 0.0755
2 | C32G C66U | 0.162
3 | C32G C75G | 0
4 | C32G C75U | 0.0468
5 | C32G C84A | 0.0386
6 | C32G C84U | 0.0354
7 | C32G C85A | 0.0378
8 | C32G C85G | 0.111
9 | C32G C85U | 0.0692
10 | C32G C86U | 0.203
11 | C32G G34C | 0.0475
12 | C32G G38A | 0.0831
13 | C32G G40U | 0.0791
14 | C32G G50U | 0.0268
15 | C32G G52A | 0.254
16 | C32G G52U | 0.198
17 | C32G G53A | 0.205
18 | C32G G59C | 0.0923
19 | C32G G68C | 0
20 | C32G G73A | 0.0615
21 | C32G G73U | 0.0692
22 | C32G G76A | 0.271
23 | C32G G80A | 0.0764
24 | C32G G82C | 0.0652

Row | Variant | self-cleavage
25 | C32G U37G | 0.0554
26 | C32G U46G | 0
27 | C32G U47G | 0.0594
28 | C32G U60C | 0.0723
29 | C32G U65C | 0.135
30 | C32G U72A | 0.0489
31 | C32G U72C | 0.104
32 | C32U | 0.881
33 | C32U A42G | 0.244
34 | C32U A42U | 0.591
35 | C32U A51U | 0.884
36 | C32U A56U | 0.76
37 | C32U A77U | 0.496
38 | C32U A78G | 0.525
39 | C32U A87C | 0.795
40 | C32U C36A | 0.17
41 | C32U C36U | 0.493
42 | C32U C41A | 0.591
43 | C32U C44U | 0.564
44 | C32U C49G | 0.743
45 | C32U C58G | 0.646
46 | C32U C63G | 0.721
47 | C32U C64A | 0.831
48 | C32U C75A | 0.0692

Row | Variant | self-cleavage
49 | C32U C86G | 0.739
50 | C32U G35U | 0.376
51 | C32U G38C | 0.233
52 | C32U G39C | 0.122
53 | C32U G40C | 0.104
54 | C32U G52C | 0.751
55 | C32U G54A | 0.891
56 | C32U G59C | 0.734
57 | C32U G67C | 0.997
58 | C32U G74U | 0.176
59 | C32U G76A | 0.946
60 | C32U G76C | 0.854
61 | C32U G76U | 0.751
62 | C32U U37C | 1.29
63 | C32U U37G | 0.166
64 | C32U U47A | 0.943
65 | C32U U47G | 1.03
66 | C32U U60G | 1.02
67 | C32U U69G | 0.852
68 | C32U U72C | 0.532
69 | C32U U79A | 0.653
70 | C33A A42C | 0.146
71 | C33A A43C | 0.0852
72 | C33A A51C | 0.147

Row | Variant | self-cleavage
73 | C33A A70C | 0.17
74 | C33A A70G | 0.198
75 | C33A A70U | 0.458
76 | C33A A71C | 0.248
77 | C33A A78U | 0.108
78 | C33A A83C | 0.0449
79 | C33A A87C | 0.248
80 | C33A A87G | 0.14
81 | C33A C36A | 0.213
82 | C33A C41A | 0.0845
83 | C33A C41G | 0.104
84 | C33A C44A | 0
85 | C33A C44G | 0.0475
86 | C33A C48G | 0.125
87 | C33A C48U | 0.163
88 | C33A C49G | 0.166
89 | C33A C57A | 0.447
90 | C33A C58A | 0.19
91 | C33A C58U | 0.142
92 | C33A C61A | 0.281
93 | C33A C62A | 0.344
94 | C33A C62G | 0.208
95 | C33A C62U | 0.241
96 | C33A C63A | 0.196

Row | Variant | self-cleavage
97 | C33A C66A | 0.485
98 | C33A C66G | 0.302
99 | C33A C66U | 0.241
100 | C33A C84G | 0.219
101 | C33A G34U | 0.0712
102 | C33A G35U | 0.137
103 | C33A G38C | 0.151
104 | C33A G39A | 0.162
105 | C33A G40C | 0.217
106 | C33A G53C | 0.332
107 | C33A G54A | 0.253
108 | C33A G55A | 0.159
109 | C33A G59A | 0.343
110 | C33A G67C | 0.277
111 | C33A G68A | 0.157
112 | C33A G73C | 0.149
113 | C33A G74C | 0.106
114 | C33A G74U | 0.0755
115 | C33A G81A | 0.0339
116 | C33A G81C | 0.222
117 | C33A U37C | 0.469
118 | C33A U37G | 0.119
119 | C33A U60C | 0.415
120 | C33A U65A | 0.332

Row | Variant | self-cleavage
121 | C33A U69A | 0.325
122 | C33A U72C | 0.151
123 | C33A U79A | 0.128
124 | C33G A42C | 0.142
125 | C33G A42G | 0.0665
126 | C33G A43U | 0.175
127 | C33G A45U | 0.185
128 | C33G A70C | 0.145
129 | C33G A78G | 0
130 | C33G A83C | 0.252
131 | C33G C36U | 0.0997
132 | C33G C41G | 0.111
133 | C33G C41U | 0.119
134 | C33G C44A | 0.0978
135 | C33G C44U | 0.172
136 | C33G C48A | 0
137 | C33G C49A | 0.119
138 | C33G C58A | 0.369
139 | C33G C58U | 0.147
140 | C33G C62U | 0.259
141 | C33G C64G | 0.156
142 | C33G C66G | 0.122
143 | C33G C84A | 0.231
144 | C33G C86U | 0.214

Row | Variant | self-cleavage
145 | C33G G35A | 0.0604
146 | C33G G38A | 0.0308
147 | C33G G39A | 0.0997
148 | C33G G52C | 0.128
149 | C33G G53C | 0.156
150 | C33G G54A | 0.332
151 | C33G G68C | 0.0875
152 | C33G G68U | 0.173
153 | C33G G74A | 0.0449
154 | C33G G81U | 0.0354
155 | C33G G82A | 0
156 | C33G U37G | 0.161
157 | C33G U46A | 0
158 | C33G U60A | 0.19
159 | C33G U60C | 0.196
160 | C33G U65C | 0.115
161 | C33G U65G | 0.222
162 | C33G U69G | 0.123
163 | C33G U72C | 0.115
164 | C33G U79G | 0.0665
165 | C33U A42U | 0.345
166 | C33U A51G | 1.01
167 | C33U A70G | 0.758
